The results in this text go back to paper PMC2901339.

Assay [1] has as its target coatomer protein I (COP-I), endogenous, HEK cells (human (endogenous in HEK-293)) (UniProt P53618). In words: co-IP; lysates of HEK cells transfected with V5 tagged constructs, immunoprecipitated with anti COP I antibody, blot with anti V5 antibody.
The next assay deals with NF-PLN RΔ14 (rabbit) (UniProt P61015). The assay is described as follows: co-IP; lysates of transfected HEK cells, FLAG-tagged PLN constructs precipitated with anti-Flag antibody and Protein G-Sepharose, 4°C, 0.1% Triton-X100, blot with COP I antibody.
The target of assay [2] is NF-R13E/R14E (N-terminally FLAG-tagged PLN R13E/R14E) (rabbit) (UniProt P61015). The description is as above.
The target of assay [3] is coatomer protein I (COP-I), endogenous, HEK cells (human (endogenous in HEK-293)) (UniProt P53618). The assay is described as follows: co-IP; lysates of HEK cells transfected with V5 tagged constructs, immunoprecipitated with anti COP I antibody, blot with anti V5 antibody. The source holds these as a separate data set.

Read-outs that look alike come from different tables or passages of the source.

Consider “V5 tagged Sigma 1R R7E/R8E (from UniProt Q99720 1-223) (natural protein)”, for which the fold band intensity of the wild type over this mutant in assay [1] was more than 2 fold.

Consider “coatomer protein I (COP-I), endogenous, HEK cells (from UniProt P53618 1-953) (complex)”, for which the fold reduction in band intensity against NF-PLN (in the assay with NF-PLN RΔ14 (rabbit); in assay [2]) was 5 fold each time.

B1: V5 tagged SR β R7E/R8E (natural protein)
chain: MASADSEEVADGGGAGGTFQPYLDTLRQELQQTDPTLLSVVVAVLAVLLTLVFWKLIRSRRSSQRAVLLVGLCDSGKTLLFVRLLTGLYRDTQTSITDSCAVYRVNNNRGNSLTLIDLPGHESLRLQFLERFKSSARAIVFVVDSAAFQREVKDVAEFLYQVLIDSMGLKNTPSFLIACNKQDIAMAKSAKLIQQQLEKELNTLRVTRSAAPSTLDSSSTAPAQLGKKGKEFEFSQLPLKVEFLECSAKGGRGDVGSADIQDLEKWLAKIA
In assay [3], B1 registered a fold band intensity of the wild type over this mutant of more than 2 fold.
